# Test: soluble on expression in E. coli; label from the status in PepcDB or PDB records
row,Sequence,soluble on expression in E. coli
1,MSLKFLLTTAQGIEDIAKREVSLLLKKLGISFQIEEKPLGIEGRLLLEAEKAYYVDEKGRKRELSISTYLNENSRLLHRVIIEIASEKFNGIEKDESEEALKRIKDFVSSLPVEQFVKVSETFAVRSFRKGDHNITSIDIARTVGEAIFERLSRFGTPLVNLDHPAVIFRAELIKDVFFLGIDTTGDSSLHKRPWRVYDHPAHLKASIANAMIELAELDGGSVLDPMCGSGTILIELALRRYSGEIIGIEKYRKHLIGAEMNALAAGVLDKIKFIQGDATQLSQYVDSVDFAISNLPYGLKIGKKSMIPDLYMKFFNELAKVLEKRGVFITTEKKAIEEAIAENGFEIIHHRVIGHGGLMVHLYVVKGIITITTDPNSSSVDKLAAALEHHHHHH,soluble
2,GPGSMKLTFYRLLGCPYCAKVEAVLQYHDVPYEEVHVDPLSGKGLPDRRYQLAPQLYLAPLAKRNSGGAEAAATDSNGVYVVDSAEIVSRLSGPLKYAADIANPRISATRDWITNHFHGASFAITNNSFCDAYATYAYVTPSNYQNFLYHVVGSAALSVLSRYKIQPRLIAKMECADGPAAATPTGAPASTDSNGLWMLSEASRKALAATVRFGAVEEWLRAELQTFLQRRPADKVFHGGSSPDLADVEMYGVTRVVDQHPRLGAVVREGAFGEWQTAMREKLKANTGSVYA,not soluble
3,MPPGKCLFSGVFCNMAEKQTAKRNRREEILQSLALMLESSDGSQRITTAKLAASVGVSEAALYRHFPSKTRMFDSLIEFIEDSLITRINLILKDEKDTTARLRLIVLLLLGFGERNPGLTRILTGHALMFEQDRLQGRINQLFERIEAQLRQVLREKRMREGEGYTTDETLLASQILAFCEGMLSRFVRSEFKYRPTDDFDARWPLIAAQLQ,not soluble
4,MGSDKIHHHHHHMHASVKFRIAEIINSTMPSAEWRLLKQIGVNEVVGTLPRDPSDWRGDQPDLPWDYAPLSSLKRRLSEYGLTLSAIEDNPPMEKIKYGVKGKEDELENVLRLIENMGRLKIGVWCYNWMAGQGWMRSRISIPDRGGAEVTGFSLSDIEEYPPPKMGKIDAETLWKNLAWFLDNVIPVAEDSGVKIAMHPDDPPLEEIRGVSRIMNNVKAFDKLIEMKRSEYNTITLCQGNFTLMTEDLPSAIRHFVRKKAVSFVHFRDVKGKKDNFIESFIDDGKTDTASCMSAYIEEGFDGIMRTDHTPTLYGDTYKVPGYSILGRLHAIGYIQGLIDGVSMV,not soluble
5,MAVKQPVPKDPAKVERIMHAAMHTFAVSGYRDAKTDVIASAATVSKGLLFHYYGSKQRLYLATVQLATDTIIATINQQVFDVPDDLVTLMVRSARYKAAFGKDHPDEMKVLIDAYGALERLPVKIQAQMKILYTKSMTISREMISQVLDKMTLRADVDRDATIALIMGVYNQIFMEFQTYMRENHQVESMADIEWVVSRAKTYMGILEHGFMAADLDDQQ,not soluble
6,MSLQAELVIKNGLVILETGEVITDVAVQGGKIVAIGQDLSGERVIDATGLVVSPGMVDAHVHITDPGGGYRDEWEGYVTGTAACAKGGVTTFMEMPLNQIPATVDKTSLEIKYKAGENKLKVDVGSFGGVVPTNLADGIQELDEGGVSGYKCFLGTCGDRSIEGDFQNVDDYSLYEGMKQVAKTGKVLAIHAENAPITDKLGAVAYQNGETTLAAYVATRPVFTEVEAIQKAILFAKETGCRIHICHVACQEGVEEVLKAQAEGVDVTCETCTHYLYFTTDELDAIGPVVKCSPPIRDADQQAALWNHVQTGGIAFVTSDHSPCTPDLKDTTNAFEAWGGISGVQNNVDVLFDEAVQKRGLSLKQFADMIAANPADRYHLAQKGRISIGKDADFVLIKPNAPYILKAEDLEYRNKISPYIGREIGAQVIQTILRGETIYAQETGVTEAFNGVFIKNEGHHHHHH,soluble
7,MGSDKIHHHHHHMFKESPIIRRVSRQIMVGNVPVGGDAPITVQSMTNTLTTDVAATVAQIKALEAVGADIVRVSVPTMDAAEAFREIKKQVNVPLVADIHFDYRIALKVAEYGVDCLRINPGNIGNENRIRSVVECARDNNIPIRIGVNGGSLEKDIQEKYTEPTPEALLESAMRHVDILDRLNFNEFKVSVKASDVFLAVESYKLLAKQIDNPLHLGITEAGGLRSGSVKSSVGLGLLLAQGIGDTIRISLAADPIEEIKVGFDILKSLKLRSRGINLIACPSCSRQEFDVVSTVNALEQRIEDIMTPMDVSIIGCIVNGPGEAMVSDLGLTGSSKKSGYYLDGIRQKERFDNTDLVDQLEQRIRAKARSMSERLDEKNKIDILTKD,not soluble
8,VLGDKEWVYLPGLKESFKARIDTGATTSSISAVDIVPFERGGQDWVKFRIEHDNIRSEELSLPVERWVRIRQSSAEEAQRRAVVVAWIQIGDLKEQTEFTLTDRTHLTYPLLLGRSFFKDVAVVDVSRHYIQPKHPSPKK,not soluble
9,MSNLLGPRDANGIPVPMTVDESIASMKASLLKKIKRSAYVYRVDCGGCNGCEIEIFATLSPLFDAERFGIKVVPSPRHADILLFTGAVTRAMRSPALRAWQSAPDPKICISYGACGNSGGIFHDLYCVWGGTDKIVPVDVYIPGCPPTPAATLYGFAMALGLLEQKIHARGPGELDEQPAEILHGDMVQPLRVKVDREARRLAGYRYGRQIADDYLTQLGQGEEQVARWLEAENDPRLNEIVSHLNHVVEEARIRLEHHHHHH,not soluble
10,VVTLGYWDIRGLAHAIRLLLEYTETPYQERRYKAGPAPDFDPSDWTNEKEKLGLDFPNLPYLIDGDVKLTQSNAILRYIARKHNMCGETEVEKQRVDVLENHLMDLRMAFARLCYSPDFEKLKPAYLELLPGKLRQLSRFLGSRSWFVGDKLTFVDFLAYDVLDQQRMFVPDCPELQGNLSQFLQRFEALEKISAYMRSGRFMKAPIFWYTALWNNKKE,soluble
11,MYRAGAVLLRGATRTRLLAAASAHQSFATFSQRNQSILMMKSMELAGNSGERRFYSTHDDPIAVDDSLELYKDLGGMSPIQVPADMPNVPMLAINRYPLFPGFIKKVDIVKDDNLKALIRRQLSLKQPYAGVFVKRDDENKEETITSLSEVYPTGSFVQIIEVRDQGSVLELVLSAHRRIRALEPIDEITPKNETPLNGRRARGKRAASATSPLTPPPSPPPLAPSVASVAPEISATEEKEEKTTPPSATGEKQKKGIIMVRTENVVAEPVPKNNETKATMMAIVQTIRDVVQFNQLFGQQINLLLHPSQNVIDNPVYLCDLVATLVQSAETKDLQEMMDEIDVSKRLKIALLLIQKEKAVAKLKYDINKDVEKKVQDHHRKYLLNEQLKVIKKELGIEKDEKTTIIEKIDERIKTLAVPEYALKVINEEKTKLQFLDPHSSEFSVTRNYLEWLTSVPWGLTSPENRRLSVAKKALDEGHYGMKDVKERIMEFIAVNLLRKSIGGKILCFHGPPGVGKTSIAKSIATALNREYFRFSVGGMTDVAEIKGHRRTYVGAMPGKMIQCMKKVKTENPLVLIDEVDKIGGAGFHGDPASALLELLDPEQNANFNDHFLDVPVDLSRVLFICTANEISKIPGPLRDRMEMIDVSGYLAEEKVEIAHQHLIPQLRKDTSLATEQLKIEDSALEELIKHYCRESGVRNLQQHIERIFRKAALQIAEQQNEDEEPAEKATTAITENSEAEPITSTSSADCLKSSAEQIVVCTENLQKFVGRPKFTSDRMYEVTPPGVIMGLAWTAMGGSALYIETVLKRPVDLTNDKDGSIETTGNLGDVMKESVRTALTVAKGILAREQPDNKFFDKAHIHIHVPEGATPKDGPSAGVTLVSSLLSLALDRPVVQDMAMTGEISLTGKVLPVGGIREKVIAARRVGAKRVFLPNENRRDFDDLPEFMKSELDIRFVSHYDELYEHLFQ,not soluble
12,GSHHPFTAQIVAVTASGYDSEKGHVPANIADGDVKTRWAASGESWVQLELDKEQSIENILIVPFKPTERKLKFSIFYSNDGKNWQPLAEGLETSSADKNGEKLTFTPVTAKYIKLDTFGTDVNNWSAINEIAINSAAALPSRAIK,soluble
13,MGSDKIHHHHHHKDEDPVLPLEGAKLSVAVKASGTATKAYNPNDVNELEGEAYINNLAVVVFNETGTELLGYKWEALSGAEHSAIIADVPTTKAVRARIIVLANVPRDLLSTVSTYDEFQTRLVDLSSQSQTNLTMSSQVIVTKSALSEEDNYLGYTDLGDQNVDGISDPILLTRVAARIDLVNISTRFAGTPFAGREVRIDAVGIYNMKTKSYYFSEADWGETEAPDAVRNSEDTSFEDLLVNDGTSISNTPFVHYVMENMKSDDHTMIAVKATLRGNSSYQDHTKIFTAVINAGGLQNGYDHNFIRRNYVYRLRIYFDGESFDNIPVTPDPGPGPDPEPEVDTNLNIAVQVVGWGPVMQHPVID,not soluble
14,MRAEFVNPFLASLMNVLKTMASLELKPQKPRIKKDEIARGDVSGLIGMIGPTTRGSMSITFDESLALEIMQNMLGERPNGLNEEVTDMVGEITNMVTGGAKRILAESGFDFDMATPVVVSGRGHTIRHKCEGAIILMPFSSPWGNAFIEICFE,not soluble
15,DQESCKGRCTEGFNVDKKCQCDELCSYYQSCCTDYTAECKPQVTRGDVFTM,soluble
16,MDYTIENNMIKVVISDHGAEIQSVKSAHTDEEFMWQANPEIWGRHAPVLFPIVGRLKNDEYTYKGKTYHLGQHGFARNADFEVENHTKESITFLLKDNEETRKVYPFKFEFRVNYNLMNNLLEENFSVVNKSDETMIFGVGGHPGFNLPTDHGENKEDFYFDMHPSVTRVRIPLKDASLDWNNRSLAPTDSLIALSDDLFKDDALIYELRGNDNKVSLRTDKNKFHVNVWTRDAPFVGIWSQYPKTDNYVCIEPWWGIADRDDADGDLEHKYGMNHLKPGKEFQAGFSMTYHSTTDEVKLEHHHHHH,soluble
17,DQQYVKNFLLLVKSDNPEEQAAATETSIPRKLREMRMASTIDSTLSKDDILTRYLNLVHLGNGAFGVEAAARTYFGKGAPELSLAQSAMFAGIVQSSSYLDPYTNPDAVMDRRNVVLDTMAANGYATPEDVAAAKAEPLGVLEQPQGLPNGCITAGDNGFFCDYVLKYLSEKGLSTDQLTQGSYTINTTLDPDVQQAAHAAAAGQVNSHTFGVANVMNIVEPGKDSRKILAMTSSRDYGLDLDAGQTVLPQPTSLVGNGAGSVFKIFTAAVALQQGYGLDTQLQVPPRYEAKGMGDGGAEGCGAGTYCVENSGSYAPQMSLRDALAFSPNTPFVQMIEKVGVKDVVDTSVKLGLRSYANPGTFNKDNSIADYVKEHNLGSYTLGPTAVNPLELSNVAASLASDGMWCEPSPITTVTDAKGNEVFLDRPACEQAIDPEIAQALSAGLSQDTIKGTGAQAAKSLGFSAPTAAKTGTTESHSS,not soluble
18,SLQLRPSFLLSSLRPSLTGARRLVETIFLGSRPWMPGTPRRLPRLPQRYWQMRPLFLELLGNHAQCPYGVLLKTHCPLRAAVTPAAGVCAREKPQGSVAAPEEEDTDPRRLVQLLRQHSSPWQVYGFVRACLRRLVPPGLWGSRHNERRFLRNTKKFISLGKHAKLSLQELTWKMSVRDCAWLRRSPGVGCVPAAEHRLREEILAKFLHWLMSVYVVELLRSFFYVTETTFQKNRLFFYRKSVWSKLQSIGIRQHLKRVQLREEG,not soluble
19,MFFKQFYDKHLSQASYLIGCQKTGEAMIIDPIRDLSSYIRVADEEGLTITHAAETHIHADFASGIRDVAIKLNASIYVSGESDDTLGYKNMPNQTHFVQHNDDIYVGNIKLKVLHTPGHTPESISFLLTDEGAGAQVPMGLFSGDFIFVGDIGRPDLLEKAVKVEGSSEIGAKQMFKSIESIKDLPNYIQIWPGHGAGSPCGKSLGAIPTSTLGYEKQTNWAFSENNEATFIDKLISDQPAPPHHFAQMKKINQFGMNLYQPYTVYPATNTNRLTFDLRSKEAYHGGHIEGTINIPYDKNFINQIGWYLNYDQEINLIGEYHLVSKATHTLQLIGYDDVAGYQLPQSKIQTRSIHSEDITGNESHILDVRNDNEWNNGHLSQAVHVPHGKLLETDLPFNRNDVIYVHCQSGIRSSIAIGILEHKGYHNIINVNEGYKDIHLSLEHHHHHH,soluble

# Source: the DeepSol protein solubility set
